Data as given in patent US20160009788A1 (UNITED STATES OF AMERICA AS REPRESENTED BY THE SECRETARY …, published 2016).
Changes are numbered by the printed parent chain.

Tests used:
bovine serum albumin = target: T1, bovine serum albumin (bovine, UniProt P02769 25-607); test: ELISA, antigen on the solid phase, soluble Fab
T1 construct: Control antigen; also called BSA

[1] = target: T2, Norwalk virus (NV, GI.1) recombinant virus-like particles (capsid protein VP1) (Norwalk virus, UniProt Q83884 1-530); test: SPR (Biacore 1000), NV rVLP amine-coupled to CM5 chip, Fab as analyte 1-10 nM, Langmuir model
T2 construct: also called NV rVLP; NV-VLP
T2 sequence: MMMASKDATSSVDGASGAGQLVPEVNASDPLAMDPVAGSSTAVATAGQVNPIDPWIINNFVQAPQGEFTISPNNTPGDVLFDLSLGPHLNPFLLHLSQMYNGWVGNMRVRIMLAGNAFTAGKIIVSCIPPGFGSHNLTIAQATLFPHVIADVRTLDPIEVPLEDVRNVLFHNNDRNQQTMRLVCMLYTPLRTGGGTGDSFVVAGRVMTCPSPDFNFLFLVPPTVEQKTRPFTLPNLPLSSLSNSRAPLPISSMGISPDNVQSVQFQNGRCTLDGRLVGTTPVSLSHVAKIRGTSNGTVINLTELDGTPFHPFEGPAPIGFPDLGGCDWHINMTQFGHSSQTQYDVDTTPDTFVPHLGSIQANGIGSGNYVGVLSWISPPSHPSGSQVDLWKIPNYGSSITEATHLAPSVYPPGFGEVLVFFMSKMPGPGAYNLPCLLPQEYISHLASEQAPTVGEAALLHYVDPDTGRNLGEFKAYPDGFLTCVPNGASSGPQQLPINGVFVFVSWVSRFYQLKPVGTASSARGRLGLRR

[2] = target: T3, NV VP1 G365N/V370I/I376V triple mutant (Norwalk virus, UniProt Q83884 1-530); test: immunofluorescence on transfected Vero cells
T3 construct: whole, on cells; Expressed in transfected Vero cells, methanol-fixed, immunofluorescence
T3 sequence (looked up): T2 sequence with G365N, V370I, I376V

NV VP1 G365N mutant = target: T4, NV VP1 G365N mutant (Norwalk virus, UniProt Q83884 1-530); test: immunofluorescence on transfected Vero cells
T4 construct: whole, on cells; Expressed in transfected Vero cells, methanol-fixed, immunofluorescence
T4 sequence (looked up): T2 sequence with G365N

[3] = target: T5, NV VP1 G365N/I376V double mutant (Norwalk virus, UniProt Q83884 1-530); test: immunofluorescence on transfected Vero cells
T5 construct: whole, on cells; Expressed in transfected Vero cells, methanol-fixed, immunofluorescence
T5 sequence (looked up): T2 sequence with G365N, I376V

[4] = target: T6, NV VP1 G365N/V370I double mutant (Norwalk virus, UniProt Q83884 1-530); test: immunofluorescence on transfected Vero cells
T6 construct: whole, on cells; Expressed in transfected Vero cells, methanol-fixed, immunofluorescence
T6 sequence (looked up): T2 sequence with G365N, V370I

T1 sequence (P02769 25-607 limits assumed): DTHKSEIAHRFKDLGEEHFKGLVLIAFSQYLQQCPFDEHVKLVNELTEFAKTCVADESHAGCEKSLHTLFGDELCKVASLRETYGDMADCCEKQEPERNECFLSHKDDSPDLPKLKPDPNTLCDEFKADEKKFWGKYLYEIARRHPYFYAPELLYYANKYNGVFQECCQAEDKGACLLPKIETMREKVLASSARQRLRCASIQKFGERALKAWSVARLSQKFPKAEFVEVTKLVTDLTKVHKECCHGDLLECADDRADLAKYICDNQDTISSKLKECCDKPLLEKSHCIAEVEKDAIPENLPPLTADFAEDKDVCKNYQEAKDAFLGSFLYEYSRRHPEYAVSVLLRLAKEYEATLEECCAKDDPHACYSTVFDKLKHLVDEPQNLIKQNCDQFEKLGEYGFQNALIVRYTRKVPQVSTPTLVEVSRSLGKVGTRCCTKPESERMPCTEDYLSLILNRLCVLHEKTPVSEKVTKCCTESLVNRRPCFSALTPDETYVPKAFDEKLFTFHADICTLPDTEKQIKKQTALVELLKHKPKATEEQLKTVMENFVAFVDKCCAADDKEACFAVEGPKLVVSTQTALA

B1: anti-NV Fab G4 (Fab, V domains shown)
VH: EVQLEESGGGLVKPGGSLRLSCAASGFTFSHYVMYWVRQAPEKGLEWVSTISGSGSSTWYPDSVKGRFTVSRDNSKNTLYLQMNSLRGDDTAVYYCARLQGQLVYWGLGTLVTVS
VL: ELQMTQSPSTLSASVGDRVTITCRASQGISSWLAWYQQKPGRAPKLLIYKSSTLESGVPSRFSGSGSGTEFTLTISSLQPDDFATYFCQQYSSNPPLTFGGGTKVEIKR
notes: also called Norwalk Fab G4
binding result (bovine serum albumin): no binding
Kd [1]: 0.974 nM
koff [1]: 0.00142 s⁻¹
kon [1]: 1.46e+06 M⁻¹ s⁻¹
binding result [2]: no binding (tested: 5 ug/mL)
binding result (NV VP1 G365N mutant): no binding (tested: 5 ug/mL)
binding result [3]: no binding (tested: 5 ug/mL)
binding result [4]: no binding (tested: 5 ug/mL)
